Laboratory results published in PMC11270970.

Target: nucleolin (NuP), recombinant human (Homo sapiens) (UniProt P19338)
Assay: SPR
Details: SPR with recombinant human nucleolin, buffer, salt, pH and temperature not given in the material

Chain of nucleolin (NuP), recombinant human (Homo sapiens) (P19338 2-710): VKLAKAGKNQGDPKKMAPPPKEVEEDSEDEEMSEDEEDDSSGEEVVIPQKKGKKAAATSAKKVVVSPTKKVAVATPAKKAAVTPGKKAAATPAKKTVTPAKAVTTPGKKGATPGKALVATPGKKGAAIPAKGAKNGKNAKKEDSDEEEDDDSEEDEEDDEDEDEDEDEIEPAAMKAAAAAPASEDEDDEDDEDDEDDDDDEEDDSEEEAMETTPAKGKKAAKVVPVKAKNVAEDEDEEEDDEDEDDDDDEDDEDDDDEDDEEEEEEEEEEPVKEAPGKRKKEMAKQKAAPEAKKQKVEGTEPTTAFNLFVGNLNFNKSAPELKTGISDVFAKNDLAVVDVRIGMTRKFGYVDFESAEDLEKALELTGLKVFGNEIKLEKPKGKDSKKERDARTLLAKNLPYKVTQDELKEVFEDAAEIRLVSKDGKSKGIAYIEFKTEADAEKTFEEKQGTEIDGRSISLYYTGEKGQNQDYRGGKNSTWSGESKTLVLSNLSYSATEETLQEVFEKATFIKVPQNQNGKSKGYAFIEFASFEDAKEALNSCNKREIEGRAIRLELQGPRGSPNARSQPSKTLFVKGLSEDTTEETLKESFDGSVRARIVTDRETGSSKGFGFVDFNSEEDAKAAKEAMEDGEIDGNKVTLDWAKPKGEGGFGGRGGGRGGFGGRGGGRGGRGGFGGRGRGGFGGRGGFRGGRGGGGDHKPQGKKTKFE

| Sequence | Kd (1:1 Langmuir fit, 5' CH2CH2-(OCH2CH2)3-O linker as listed in Table S1, 5' amino form also listed, form used in SPR not stated) [nM] | Kd (5' triptolide via acetal ester linker - amino-CH2CH2-(OCH2CH2)3-O-) [nM] |
| --- | --- | --- |
| GGTGGTGGTGGTTGTGGTGGTGGTGG [AS1411] | 3.77 |  |
| GGTGGTGGTGGTTGTGGTGGTGGTGG [AS-TP (TP-amino-AS1411, 6a)] |  | 4.03 |
